T1: EsCas13d, nuclease-dead (Eubacterium siraeum, UniProt B0MS50, R295A;H300A;R849A;H854A)
T1 sequence: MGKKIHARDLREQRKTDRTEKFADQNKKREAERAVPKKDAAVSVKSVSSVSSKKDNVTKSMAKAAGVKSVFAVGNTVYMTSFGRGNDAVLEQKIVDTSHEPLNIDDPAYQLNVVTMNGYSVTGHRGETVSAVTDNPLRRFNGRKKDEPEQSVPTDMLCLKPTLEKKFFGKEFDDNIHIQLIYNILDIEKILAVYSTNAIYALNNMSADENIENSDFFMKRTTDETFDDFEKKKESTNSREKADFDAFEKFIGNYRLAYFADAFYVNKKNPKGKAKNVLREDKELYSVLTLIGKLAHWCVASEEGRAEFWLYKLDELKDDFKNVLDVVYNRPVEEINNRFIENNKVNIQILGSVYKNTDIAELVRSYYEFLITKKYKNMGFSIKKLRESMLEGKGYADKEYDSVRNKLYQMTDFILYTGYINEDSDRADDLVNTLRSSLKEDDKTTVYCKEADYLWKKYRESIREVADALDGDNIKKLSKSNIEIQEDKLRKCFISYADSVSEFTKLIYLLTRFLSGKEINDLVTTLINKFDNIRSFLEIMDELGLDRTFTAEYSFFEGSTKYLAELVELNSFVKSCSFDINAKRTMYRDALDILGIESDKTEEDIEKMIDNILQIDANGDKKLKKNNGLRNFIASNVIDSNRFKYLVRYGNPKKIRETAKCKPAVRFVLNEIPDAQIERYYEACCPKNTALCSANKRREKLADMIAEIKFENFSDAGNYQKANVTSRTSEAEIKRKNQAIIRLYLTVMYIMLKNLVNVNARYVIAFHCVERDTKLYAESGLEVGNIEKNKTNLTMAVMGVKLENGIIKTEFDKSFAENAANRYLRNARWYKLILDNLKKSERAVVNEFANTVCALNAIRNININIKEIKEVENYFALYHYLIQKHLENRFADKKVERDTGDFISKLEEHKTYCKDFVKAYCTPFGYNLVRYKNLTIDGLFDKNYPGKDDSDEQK


The binders below were run against T1, EsCas13d, nuclease-dead (assay: crRNA (strand 1, pre-loaded); Mg2+; 40 mM Tris-HCl pH 7.5, 150 mM NaCl, 6 mM MgCl2, 1 mM DTT, 0.1% Tween-20, 0.2 mg/ml BSA; 25 C; 10 min per concentration, then washed). Details: tags: His6-TwinStrep-SUMO cleaved; N-terminal SNAP kept (SNAP-Surface 488); label: 3' end held by stalled T7 RNA polymerase.

Row | Binder | Kd
1 | target 1 insG 3' of 21,insC 3' of 1 (mixed) RNA 1: CACCCGUGCAAAAAUGCAGGGGUCUAAAACUGAGCGGAUAACCUCUCUAUGG RNA 2: GGGAAUGGAUCCACAUCUACGAAUUCGUACCGAUAGAGAGGUUAUCCGCUCACCCGAGAUCGGAAGAGCACACGU | 69 ± 12 nM
2 | target 1 insG 3' of 21,insA 3' of 2 (mixed) RNA 1: CACCCGUGCAAAAAUGCAGGGGUCUAAAACUGAGCGGAUAACCUCUCUAUGG RNA 2: GGGAAUGGAUCCACAUCUACGAAUUCGUACCGAUAGAGAGGUUAUCCGCUCAACCGAGAUCGGAAGAGCACACGU | 54 ± 13 nM
3 | target 1 insG 3' of 21,insG 3' of 1 (mixed) RNA 1: CACCCGUGCAAAAAUGCAGGGGUCUAAAACUGAGCGGAUAACCUCUCUAUGG RNA 2: GGGAAUGGAUCCACAUCUACGAAUUCGUACCGAUAGAGAGGUUAUCCGCUCAGCCGAGAUCGGAAGAGCACACGU | 66 ± 10 nM
4 | target 3 insG 3' of 7,insC 3' of 3 (mixed) RNA 1: CACCCGUGCAAAAUUGCAGGGGUCUAAAACGACCUGAAUAUUUCAGAUCAAA RNA 2: GGGAAUGGAUCCACAUCUACGAAUUCGUUUUUGAUCUGAAAUAUUGCAGGCUCUGCAGAUCGGAAGAGCACACGU | 46 ± 5 nM
5 | target 3 U2A,U8G (mixed) RNA 1: CACCCGUGCAAAAUUGCAGGGGUCUAAAACGACCUGAAUAUUUCAGAUCAAA RNA 2: GGGAAUGGAUCCACAUCUACGAAUUCGUUUUUGAUCUGAAAUAGUCAGGACUGCAGAUCGGAAGAGCACACGU | 29.8 ± 3.4 nM
6 | target 3 C1U,C6A (mixed) RNA 1: CACCCGUGCAAAAUUGCAGGGGUCUAAAACGACCUGAAUAUUUCAGAUCAAA RNA 2: GGGAAUGGAUCCACAUCUACGAAUUCGUUUUUGAUCUGAAAUAUUAAGGUUUGCAGAUCGGAAGAGCACACGU | 59 ± 21 nM
7 | target 3 insA 3' of 22,insA 3' of 8 (mixed) RNA 1: CACCCGUGCAAAAUUGCAGGGGUCUAAAACGACCUGAAUAUUUCAGAUCAAA RNA 2: GGGAAUGGAUCCACAUCUACGAAUUCGUUUAUUGAUCUGAAAUAUAUCAGGUCUGCAGAUCGGAAGAGCACACGU | 98.5 ± 35.5 nM
8 | target 3 insC 3' of 3,insA 3' of 2 (mixed) RNA 1: CACCCGUGCAAAAUUGCAGGGGUCUAAAACGACCUGAAUAUUUCAGAUCAAA RNA 2: GGGAAUGGAUCCACAUCUACGAAUUCGUUUUUGAUCUGAAAUAUUCAGGCUACUGCAGAUCGGAAGAGCACACGU | 18.6 ± 2.2 nM
9 | target 3 A13G,U22A (mixed) RNA 1: CACCCGUGCAAAAUUGCAGGGGUCUAAAACGACCUGAAUAUUUCAGAUCAAA RNA 2: GGGAAUGGAUCCACAUCUACGAAUUCGUUAUUGAUCUGGAAUAUUCAGGUCUGCAGAUCGGAAGAGCACACGU | 43 ± 15 nM
10 | target 3 G4A,U22G (mixed) RNA 1: CACCCGUGCAAAAUUGCAGGGGUCUAAAACGACCUGAAUAUUUCAGAUCAAA RNA 2: GGGAAUGGAUCCACAUCUACGAAUUCGUUGUUGAUCUGAAAUAUUCAAGUCUGCAGAUCGGAAGAGCACACGU | 56.5 ± 9 nM
11 | target 3 C1A,A5U (mixed) RNA 1: CACCCGUGCAAAAUUGCAGGGGUCUAAAACGACCUGAAUAUUUCAGAUCAAA RNA 2: GGGAAUGGAUCCACAUCUACGAAUUCGUUUUUGAUCUGAAAUAUUCUGGUAUGCAGAUCGGAAGAGCACACGU | 5.9 ± 1 nM
12 | target 3 C1U,A11G (mixed) RNA 1: CACCCGUGCAAAAUUGCAGGGGUCUAAAACGACCUGAAUAUUUCAGAUCAAA RNA 2: GGGAAUGGAUCCACAUCUACGAAUUCGUUUUUGAUCUGAAGUAUUCAGGUUUGCAGAUCGGAAGAGCACACGU | 55.5 ± 13 nM
13 | target 3 insG 3' of 7,insA 3' of 2 (mixed) RNA 1: CACCCGUGCAAAAUUGCAGGGGUCUAAAACGACCUGAAUAUUUCAGAUCAAA RNA 2: GGGAAUGGAUCCACAUCUACGAAUUCGUUUUUGAUCUGAAAUAUUGCAGGUACUGCAGAUCGGAAGAGCACACGU | 32.5 ± 5.75 nM
14 | target 3 insA 3' of 6,insG 3' of 6 (mixed) RNA 1: CACCCGUGCAAAAUUGCAGGGGUCUAAAACGACCUGAAUAUUUCAGAUCAAA RNA 2: GGGAAUGGAUCCACAUCUACGAAUUCGUUUUUGAUCUGAAAUAUUCAGAGGUCUGCAGAUCGGAAGAGCACACGU | 41 ± 4.5 nM
15 | target 3 A5U (mixed) RNA 1: CACCCGUGCAAAAUUGCAGGGGUCUAAAACGACCUGAAUAUUUCAGAUCAAA RNA 2: GGGAAUGGAUCCACAUCUACGAAUUCGUUUUUGAUCUGAAAUAUUCUGGUCUGCAGAUCGGAAGAGCACACGU | 65.5 ± 14.5 nM
16 | target 3 U2A,U8A (mixed) RNA 1: CACCCGUGCAAAAUUGCAGGGGUCUAAAACGACCUGAAUAUUUCAGAUCAAA RNA 2: GGGAAUGGAUCCACAUCUACGAAUUCGUUUUUGAUCUGAAAUAAUCAGGACUGCAGAUCGGAAGAGCACACGU | 39 ± 6 nM
17 | target 3 insG 3' of 6,insU 3' of 4 (mixed) RNA 1: CACCCGUGCAAAAUUGCAGGGGUCUAAAACGACCUGAAUAUUUCAGAUCAAA RNA 2: GGGAAUGGAUCCACAUCUACGAAUUCGUUUUUGAUCUGAAAUAUUCGAGUGUCUGCAGAUCGGAAGAGCACACGU | 11.3 ± 1.2 nM
18 | target 3 G3A,G4C (mixed) RNA 1: CACCCGUGCAAAAUUGCAGGGGUCUAAAACGACCUGAAUAUUUCAGAUCAAA RNA 2: GGGAAUGGAUCCACAUCUACGAAUUCGUUUUUGAUCUGAAAUAUUCACAUCUGCAGAUCGGAAGAGCACACGU | 9.25 ± 0.85 nM
19 | target 3 insU 3' of 4,insU 3' of 4 (mixed) RNA 1: CACCCGUGCAAAAUUGCAGGGGUCUAAAACGACCUGAAUAUUUCAGAUCAAA RNA 2: GGGAAUGGAUCCACAUCUACGAAUUCGUUUUUGAUCUGAAAUAUUCAGUUGUCUGCAGAUCGGAAGAGCACACGU | 14.5 ± 1.2 nM
20 | target 3 G3U,U22G (mixed) RNA 1: CACCCGUGCAAAAUUGCAGGGGUCUAAAACGACCUGAAUAUUUCAGAUCAAA RNA 2: GGGAAUGGAUCCACAUCUACGAAUUCGUUGUUGAUCUGAAAUAUUCAGUUCUGCAGAUCGGAAGAGCACACGU | 94 ± 21.5 nM
21 | target 3 insG 3' of 8,insC 3' of 4 (mixed) RNA 1: CACCCGUGCAAAAUUGCAGGGGUCUAAAACGACCUGAAUAUUUCAGAUCAAA RNA 2: GGGAAUGGAUCCACAUCUACGAAUUCGUUUUUGAUCUGAAAUAUGUCAGCGUCUGCAGAUCGGAAGAGCACACGU | 38.5 ± 8 nM
22 | target 3 C1A,A11G (mixed) RNA 1: CACCCGUGCAAAAUUGCAGGGGUCUAAAACGACCUGAAUAUUUCAGAUCAAA RNA 2: GGGAAUGGAUCCACAUCUACGAAUUCGUUUUUGAUCUGAAGUAUUCAGGUAUGCAGAUCGGAAGAGCACACGU | 41 ± 14.5 nM
23 | target 3 A12G (mixed) RNA 1: CACCCGUGCAAAAUUGCAGGGGUCUAAAACGACCUGAAUAUUUCAGAUCAAA RNA 2: GGGAAUGGAUCCACAUCUACGAAUUCGUUUUUGAUCUGAGAUAUUCAGGUCUGCAGAUCGGAAGAGCACACGU | 43 ± 7.5 nM
24 | target 3 U2G,A5C (mixed) RNA 1: CACCCGUGCAAAAUUGCAGGGGUCUAAAACGACCUGAAUAUUUCAGAUCAAA RNA 2: GGGAAUGGAUCCACAUCUACGAAUUCGUUUUUGAUCUGAAAUAUUCCGGGCUGCAGAUCGGAAGAGCACACGU | 120 ± 32.5 nM
25 | target 3 insU 3' of 22,insA 3' of 22 (mixed) RNA 1: CACCCGUGCAAAAUUGCAGGGGUCUAAAACGACCUGAAUAUUUCAGAUCAAA RNA 2: GGGAAUGGAUCCACAUCUACGAAUUCGUUUUAUUGAUCUGAAAUAUUCAGGUCUGCAGAUCGGAAGAGCACACGU | 13.4 ± 1.35 nM
26 | target 3 insA 3' of 6,insA 3' of 3 (mixed) RNA 1: CACCCGUGCAAAAUUGCAGGGGUCUAAAACGACCUGAAUAUUUCAGAUCAAA RNA 2: GGGAAUGGAUCCACAUCUACGAAUUCGUUUUUGAUCUGAAAUAUUCAAGGAUCUGCAGAUCGGAAGAGCACACGU | 6.15 ± 0.6 nM
27 | target 3 G4U,U8C (mixed) RNA 1: CACCCGUGCAAAAUUGCAGGGGUCUAAAACGACCUGAAUAUUUCAGAUCAAA RNA 2: GGGAAUGGAUCCACAUCUACGAAUUCGUUUUUGAUCUGAAAUACUCAUGUCUGCAGAUCGGAAGAGCACACGU | 39 ± 5 nM
28 | target 3 C1G,U21A (mixed) RNA 1: CACCCGUGCAAAAUUGCAGGGGUCUAAAACGACCUGAAUAUUUCAGAUCAAA RNA 2: GGGAAUGGAUCCACAUCUACGAAUUCGUUUAUGAUCUGAAAUAUUCAGGUGUGCAGAUCGGAAGAGCACACGU | 44.5 ± 10.5 nM

Reference: PMC10786891, “Massively parallel profiling of RNA-targeting CRISPR-Cas13d”
